The target of one test is biotinylated TGF-β1 (Homo sapiens (Human), UniProt P01137 279-390, Biotinylated (site or sites not stated) for capture on streptavidin plates. The active cytokine is a disulfide-linked 25 kDa homodimer; one subunit is given.). Kind of test: phage display biopanning on biotinylated TGF-β1 on streptavidin plates; clones among 108 colonies after 3 cycles.
Chain of biotinylated TGF-β1 (P01137 279-390 limits assumed, form in doubt): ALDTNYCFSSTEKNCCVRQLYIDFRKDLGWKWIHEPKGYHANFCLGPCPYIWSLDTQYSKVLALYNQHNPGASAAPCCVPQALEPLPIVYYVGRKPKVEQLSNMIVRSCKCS
Chain of TGF-β1 raised in mice by acute liver damage (CCl4) (P04202 279-390 limits assumed): as the sequence (P01137 279-390 limits assumed, form in doubt) above, with A75S counted along it
Molecule WHKYFLRRPLSVRTR (15-aa peptide) [peptide identified by SEQ ID NO: 11] yielded a No. colonies of 4 colonies.
In the case of FVWVRFHRLPRQIYT (15-aa peptide) [peptide identified by SEQ ID NO: 10], the No. colonies came out at 1 colonies.
On the same count and under the same terms, to DRRIFWWSLRSAPGA (15-aa peptide) [peptide identified by SEQ ID NO: 1] belongs 6 colonies; to DRRIFWWSNRSAPGA (15-aa peptide) [peptide identified by SEQ ID NO: 2], 1 colonies.
In the case of VPMALNHGVYVMVSS (15-aa peptide) [peptide identified by SEQ ID NO: 22], the No. colonies came to 1 colonies.
Still for that read-out and setting: to WHKYFLRRPLSVGLG (15-aa peptide) [peptide identified by SEQ ID NO: 12] belongs 1 colonies; to KRIWFIPRSSWYERA (15-aa peptide) [TGF-β1 inhibitor peptide P17 (SEQ ID NO: 17)], 3 colonies; to PPYHRFWRGHRHAVQ (15-aa peptide) [peptide identified by SEQ ID NO: 6], 12 colonies.
Same read-out and setting: the figure for SGRRHLHRHHIFSLP (15-aa peptide) [peptide identified by SEQ ID NO: 14] is 2 colonies; for GWHSLLHSRYHRLAA (15-aa peptide) [peptide identified by SEQ ID NO: 9] it is 1 colonies; for HRISHFAHRYLARLH (15-aa peptide) [peptide identified by SEQ ID NO: 7] it is 2 colonies.
On to RRFHFHSRMVAVDNS (15-aa peptide) [peptide identified by SEQ ID NO: 20], for which the No. colonies stood at 1 colonies.
Same read-out and setting: the figure for RLAHSHRHRSHVALT (15-aa peptide) [peptide identified by SEQ ID NO: 4] is 18 colonies; for MPLSRYWWLFSHRPR (15-aa peptide) [peptide identified by SEQ ID NO: 18] it is 1 colonies.
Still for that read-out and setting: the figure for GWITFHRRHHDRVLS (15-aa peptide) [peptide identified by SEQ ID NO: 15] is 1 colonies; for RKWFLQHRRMPVSVL (15-aa peptide) [peptide identified by SEQ ID NO: 13] it is 6 colonies.
The same measure, in the same setting: to RHLSHFKWLRSHGLD (15-aa peptide) [peptide identified by SEQ ID NO: 19] belongs 1 colonies.
The molecule RFFTRFPWHYHASRL (15-aa peptide) [peptide identified by SEQ ID NO: 3] registered a No. colonies of 41 colonies.
With WHWRHRIPLQLAAGR (15-aa peptide) [peptide identified by SEQ ID NO: 8], the No. colonies stood at 2 colonies.
Still for that read-out and setting: to RLHGHRSHRFTHVAQ (15-aa peptide) [peptide identified by SEQ ID NO: 16] belongs 1 colonies.
For the molecule HVRLHHYLRHRSLPN (15-aa peptide) [peptide identified by SEQ ID NO: 21], the No. colonies was 1 colonies.
The same measure, in the same setting: the figure for RRWVRYPVHLHSPIV (15-aa peptide) [peptide identified by SEQ ID NO: 5] is 1 colonies.

A further test concerns the target TGF-β1 raised in mice by acute liver damage (CCl4) (mouse, UniProt P04202 279-390, limits assumed). Kind of test: cell-based or functional assay.
Consider WHKYFLRRPLSVRTR (15-aa peptide) [peptide identified by SEQ ID NO: 11], for which the “% Inhibition (type I collagen mRNA induction, acute liver damage model in mice)” value was 39.3%.
On the same count and under the same terms, the figure for DRRIFWWSLRSAPGA (15-aa peptide) [peptide identified by SEQ ID NO: 1] is 0.69%.
The same measure, in the same setting: to DRRIFWWSNRSAPGA (15-aa peptide) [peptide identified by SEQ ID NO: 2] belongs 36.6%.
Regarding KRIWFIPRSSWYERA (15-aa peptide) [TGF-β1 inhibitor peptide P17 (SEQ ID NO: 17)], the “% Inhibition (type I collagen mRNA induction, acute liver damage model in mice)” value was 93.1%.
On the same count and under the same terms, to PPYHRFWRGHRHAVQ (15-aa peptide) [peptide identified by SEQ ID NO: 6] belongs 74.9%; to SGRRHLHRHHIFSLP (15-aa peptide) [peptide identified by SEQ ID NO: 14], 49.8%.
On the same count and under the same terms, to GWHSLLHSRYHRLAA (15-aa peptide) [peptide identified by SEQ ID NO: 9] belongs 26.6%; to RRFHFHSRMVAVDNS (15-aa peptide) [peptide identified by SEQ ID NO: 20], 1.41%.
The same measure, in the same setting: to RLAHSHRHRSHVALT (15-aa peptide) [peptide identified by SEQ ID NO: 4] belongs 51.3%; to GWITFHRRHHDRVLS (15-aa peptide) [peptide identified by SEQ ID NO: 15], 14.3%; to RKWFLQHRRMPVSVL (15-aa peptide) [peptide identified by SEQ ID NO: 13], 32.7%.
Regarding RHLSHFKWLRSHGLD (15-aa peptide) [peptide identified by SEQ ID NO: 19], the “% Inhibition (type I collagen mRNA induction, acute liver damage model in mice)” value is 12.1%.
Still for that read-out and setting: to RFFTRFPWHYHASRL (15-aa peptide) [peptide identified by SEQ ID NO: 3] belongs 2.09%.
On the same count and under the same terms, the figure for TSLDASIIWAMMQN [peptide identified as P144 in the Spanish patent application ES 2146552 A1 (SEQ ID NO: 51)] is -3.51%.

For a further test, the target named is TGF-β1 (Roche). Briefly: cell-based or functional assay.
Chain of TGF-β1 (Roche) (P01137 279-390): as the sequence (P01137 279-390 limits assumed, form in doubt) above
In the case of WHKYFLRRPLSVRTR (15-aa peptide) [peptide identified by SEQ ID NO: 11], the “% Inhibition (Mv-1-Lu cell line growth reestablishment, 3H-thymidine)” value amounted to 27.4%.
The same measure, in the same setting: the figure for FVWVRFHRLPRQIYT (15-aa peptide) [peptide identified by SEQ ID NO: 10] is -4.58%.
Consider DRRIFWWSLRSAPGA (15-aa peptide) [peptide identified by SEQ ID NO: 1], for which the “% Inhibition (Mv-1-Lu cell line growth reestablishment, 3H-thymidine)” value was 3.33%.
On to DRRIFWWSNRSAPGA (15-aa peptide) [peptide identified by SEQ ID NO: 2], for which the “% Inhibition (Mv-1-Lu cell line growth reestablishment, 3H-thymidine)” value is -0.96%.
In the case of VPMALNHGVYVMVSS (15-aa peptide) [peptide identified by SEQ ID NO: 22], the “% Inhibition (Mv-1-Lu cell line growth reestablishment, 3H-thymidine)” value was found to be 4.13%.
Take WHKYFLRRPLSVGLG (15-aa peptide) [peptide identified by SEQ ID NO: 12]: the “% Inhibition (Mv-1-Lu cell line growth reestablishment, 3H-thymidine)” value was 10.7%.
As to KRIWFIPRSSWYERA (15-aa peptide) [TGF-β1 inhibitor peptide P17 (SEQ ID NO: 17)], the “% Inhibition (Mv-1-Lu cell line growth reestablishment, 3H-thymidine)” value came to 38.9%.
Consider PPYHRFWRGHRHAVQ (15-aa peptide) [peptide identified by SEQ ID NO: 6], for which the “% Inhibition (Mv-1-Lu cell line growth reestablishment, 3H-thymidine)” value amounted to 12.8%.
On the same count and under the same terms, the figure for SGRRHLHRHHIFSLP (15-aa peptide) [peptide identified by SEQ ID NO: 14] is 3.62%.
On the same count and under the same terms, to GWHSLLHSRYHRLAA (15-aa peptide) [peptide identified by SEQ ID NO: 9] belongs 4.98%; to HRISHFAHRYLARLH (15-aa peptide) [peptide identified by SEQ ID NO: 7], -25%; to RRFHFHSRMVAVDNS (15-aa peptide) [peptide identified by SEQ ID NO: 20], 6.16%.
RLAHSHRHRSHVALT (15-aa peptide) [peptide identified by SEQ ID NO: 4]: the “% Inhibition (Mv-1-Lu cell line growth reestablishment, 3H-thymidine)” value worked out at 5.53%.
As for MPLSRYWWLFSHRPR (15-aa peptide) [peptide identified by SEQ ID NO: 18], the “% Inhibition (Mv-1-Lu cell line growth reestablishment, 3H-thymidine)” value came to 21.3%.
As to GWITFHRRHHDRVLS (15-aa peptide) [peptide identified by SEQ ID NO: 15], the “% Inhibition (Mv-1-Lu cell line growth reestablishment, 3H-thymidine)” value was found to be 13.4%.
On to RKWFLQHRRMPVSVL (15-aa peptide) [peptide identified by SEQ ID NO: 13], for which the “% Inhibition (Mv-1-Lu cell line growth reestablishment, 3H-thymidine)” value turned out to be 18%.
Turning to RHLSHFKWLRSHGLD (15-aa peptide) [peptide identified by SEQ ID NO: 19], the “% Inhibition (Mv-1-Lu cell line growth reestablishment, 3H-thymidine)” value was 9.71%.
Same read-out and setting: the figure for RFFTRFPWHYHASRL (15-aa peptide) [peptide identified by SEQ ID NO: 3] is 25.4%; for WHWRHRIPLQLAAGR (15-aa peptide) [peptide identified by SEQ ID NO: 8] it is 15.7%.
For the molecule RLHGHRSHRFTHVAQ (15-aa peptide) [peptide identified by SEQ ID NO: 16], the “% Inhibition (Mv-1-Lu cell line growth reestablishment, 3H-thymidine)” value was found to be 9.47%.
Still for that read-out and setting: the figure for HVRLHHYLRHRSLPN (15-aa peptide) [peptide identified by SEQ ID NO: 21] is 13.4%; for RRWVRYPVHLHSPIV (15-aa peptide) [peptide identified by SEQ ID NO: 5] it is 15.8%; for TSLDASIIWAMMQN [peptide identified as P144 in the Spanish patent application ES 2146552 A1 (SEQ ID NO: 51)] it is 7.26%.

The next test deals with TGF-β1 (Roche). Kind of test: cell-based or functional assay. The source holds these as a separate data set.
For KRIWFIPRSS [truncated peptide SEQ ID NO: 35 (T12)], the “% Inhibition (Mv-1-Lu cell line growth reestablishment)” value worked out at 6%.
Regarding FIPRSSWYERA [truncated peptide SEQ ID NO: 30 (T7)], the “% Inhibition (Mv-1-Lu cell line growth reestablishment)” value is -0.3%.
Regarding WFIPRSSWY [truncated peptide SEQ ID NO: 28 (T5)], the “% Inhibition (Mv-1-Lu cell line growth reestablishment)” value is 3.1%.
As to RIWFIPRSSWYERA [truncated peptide SEQ ID NO: 24 (T1)], the “% Inhibition (Mv-1-Lu cell line growth reestablishment)” value was 9.4%.
On to KRIWFIPRS [truncated peptide SEQ ID NO: 36 (T13)], for which the “% Inhibition (Mv-1-Lu cell line growth reestablishment)” value is 6.2%.
With IWFIPRSSWYERA [truncated peptide SEQ ID NO: 26 (T3)], the “% Inhibition (Mv-1-Lu cell line growth reestablishment)” value came to 4.5%.
Regarding IWFIPRSSWYE [truncated peptide SEQ ID NO: 27 (T4)], the “% Inhibition (Mv-1-Lu cell line growth reestablishment)” value amounted to 1.4%.
As for PRSSWYERA [truncated peptide SEQ ID NO: 32 (T9)], the “% Inhibition (Mv-1-Lu cell line growth reestablishment)” value came to 3.8%.
Regarding KRIWFIPRSSWYERA (15-aa peptide) [TGF-β1 inhibitor peptide P17 (SEQ ID NO: 17)], the “% Inhibition (Mv-1-Lu cell line growth reestablishment)” value was determined as 28.5%.
Turning to IPRSSWYERA [truncated peptide SEQ ID NO: 31 (T8)], the “% Inhibition (Mv-1-Lu cell line growth reestablishment)” value came to 3.4%.
On the same count and under the same terms, the figure for RIWFIPRSSWYER [truncated peptide SEQ ID NO: 25 (T2)] is 6.2%; for WFIPRSSWYERA [truncated peptide SEQ ID NO: 29 (T6)] it is 2.7%; for KRIWFIPRSSWYER [truncated peptide SEQ ID NO: 33 (T10)] it is 31.4%.
In the case of KRIWFIPRSSWY [truncated peptide SEQ ID NO: 34 (T11)], the “% Inhibition (Mv-1-Lu cell line growth reestablishment)” value amounted to 34.4%.
